Patent US20180155451A1 (published 2018)
Where a chain is given by its changes, count along the chain named.

T1: FcγRIIa R (FcγRIIa, allotype R: Arg at position 131) extracellular domain with C-terminal His tag (human, UniProt P12318 34-217)
T1 construct: extracellular domain; also called FcgRIIa R; 2aR; not shown: His tag at the C terminus
T1 sequence (looked up): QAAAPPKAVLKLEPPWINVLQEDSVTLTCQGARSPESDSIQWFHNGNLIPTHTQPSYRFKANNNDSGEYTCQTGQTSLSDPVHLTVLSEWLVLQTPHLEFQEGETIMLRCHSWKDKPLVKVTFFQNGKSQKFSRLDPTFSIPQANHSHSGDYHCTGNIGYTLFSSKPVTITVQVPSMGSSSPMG

T2: FcγRIIb extracellular domain with C-terminal His tag (human, UniProt P31994 43-217)
T2 construct: extracellular domain; also called FcgRIIb; 2b; not shown: His tag at the C terminus
T2 sequence (looked up): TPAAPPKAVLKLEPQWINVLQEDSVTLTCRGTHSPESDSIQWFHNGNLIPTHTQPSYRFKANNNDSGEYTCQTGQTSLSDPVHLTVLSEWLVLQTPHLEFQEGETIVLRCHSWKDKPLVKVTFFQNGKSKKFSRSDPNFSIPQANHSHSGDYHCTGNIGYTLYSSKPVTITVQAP

T3: FcγRIIa H (human, UniProt P12318 34-217)
T3 construct: extracellular domain; also called FcgRIIa H; FcγRIIa type H; not shown: His tag attached to the C terminus
T3 sequence (looked up): T1 sequence (looked up) with R134H

B1: GpH7-A5/GpH7-B3 variant G237_14T/GpL16-k0 (antibody, human IgG1, kappa)
heavy 1: not shown
heavy 2: not shown
light: DIVMTQSPLSLPVTPGEPASISCQASESLVHSNRNTYLHWYLQKPGQSPQLLIYKVSNRFSGVPDRFSGSGSGTDFTLKISRVEAEDVGVYYCSQNTHVPPTFGQGTKVEIERTVAAPSVFIFPPSDEQLKSGTASVVCLLNNFYPREAKVQWKVDNALQSGNSQESVTEQDSKDSTYSLSSTLTLSKADYEKHKVYACEVTHQGLSSPVTKSFNRGEC
notes: He Ab: alteration in the GpH7-B3 H chain only; also called He Ab
B2: GpH7-A5/GpH7-B3 variant L234_14T/GpL16-k0 (antibody, human IgG1, kappa)
heavy 1: not shown
heavy 2: not shown
light: B1 light
notes: as for B1
B3: GpH7-A5/GpH7-B3 variant P238_02A/GpL16-k0 (antibody, human IgG1, kappa)
heavy 1: not shown
heavy 2: not shown
light: B1 light
notes: as for B1
B4: GpH7-A5/GpH7-B3 variant G236_16H/GpL16-k0 (antibody, human IgG1, kappa)
heavy 1: not shown
heavy 2: not shown
light: B1 light
notes: as for B1
B5: GpH7-A5/GpH7-B3 variant L235_13S/GpL16-k0 (antibody, human IgG1, kappa)
heavy 1: not shown
heavy 2: not shown
light: B1 light
notes: as for B1
B6: GpH7-A5/GpH7-B3 variant L235_16H/GpL16-k0 (antibody, human IgG1, kappa)
heavy 1: not shown
heavy 2: not shown
light: B1 light
notes: as for B1
B7: GpH7-A5/GpH7-B3 variant L234_05P/GpL16-k0 (antibody, human IgG1, kappa)
heavy 1: not shown
heavy 2: not shown
light: B1 light
notes: as for B1
B8: GpH7-A5/GpH7-B3 variant L234_16H/GpL16-k0 (antibody, human IgG1, kappa)
heavy 1: not shown
heavy 2: not shown
light: B1 light
notes: as for B1
B9: GpH7-A5/GpH7-B3 variant L234_19Q/GpL16-k0 (antibody, human IgG1, kappa)
heavy 1: not shown
heavy 2: not shown
light: B1 light
notes: as for B1
B10: GpH7-A5/GpH7-B3 variant G236_14T/GpL16-k0 (antibody, human IgG1, kappa)
heavy 1: not shown
heavy 2: not shown
light: B1 light
notes: as for B1
B11: GpH7-A5/GpH7-B3 variant G237_03V/GpL16-k0 (antibody, human IgG1, kappa)
heavy 1: not shown
heavy 2: not shown
light: B1 light
notes: as for B1
B12: GpH7-A5/GpH7-B3 variant L235_12R/GpL16-k0 (antibody, human IgG1, kappa)
heavy 1: not shown
heavy 2: not shown
light: B1 light
notes: Heterodimerized IgG1, mutation in the GpH7-B3 chain only; also called He Ab
B13: GpH7-A5/GpH7-B3 variant G236_19Q/GpL16-k0 (antibody, human IgG1, kappa)
heavy 1: not shown
heavy 2: not shown
light: B1 light
notes: as for B1
B14: GpH7-A5/GpH7-B3 variant L234_12R/GpL16-k0 (antibody, human IgG1, kappa)
heavy 1: not shown
heavy 2: not shown
light: B1 light
notes: as for B1
B15: GpH7-A5/GpH7-B3 variant L235_14T/GpL16-k0 (antibody, human IgG1, kappa)
heavy 1: not shown
heavy 2: not shown
light: B1 light
notes: as for B1
B16: GpH7-A5/GpH7-B3 variant L235_01G/GpL16-k0 (antibody, human IgG1, kappa)
heavy 1: not shown
heavy 2: not shown
light: B1 light
notes: as for B1

How the values were obtained:
[1] = molecular target: T1, FcγRIIa R (FcγRIIa, allotype R: Arg at …); test: ratio He/Con_2aR : He/Con_2b (FcgRIIa R over FcgRIIb), SPR Biacore
Protocol: The heterodimerized antibodies He Abs in which one of the H chains was introduced with an alteration were assayed for their binding activities to each activating FcγR and inhibitory FcγR according to the method described in Example 4. […] The activating FcγRs in FIGS. 26, 27, 28, and 29 are FcγRIa, FcγRIIa (R), FcγRIIa (H), and FcγRIIIa, respectively.
Analysis of interaction between objective antibody and the FcγR was carried out using Biacore T100 (GE Healthcare). HBS-EP+ (GE Healthcare) was used as the running buffer, and the measurement temperature was set to 25° C. Chips produced by immobilizing the antigen peptide by the amine coupling method to a Series S Sencor Chip CM5 (GE Healthcare), or alternatively, chips produced by allowing preliminarily biotinylated antigen peptides to interact with and immobilize onto a Series S Sensor Chip SA (certified) (GE Healthcare) were used. Antibodies of interest were captured onto an antigen peptide-immobilized chip, and allowed to interact to each FcγR diluted with running buffer. To regenerate and repeatedly use the chip, the antibodies captured on the chip were washed off by reacting 10 mM glycine-HCl, pH 1.5.

[2] = molecular target: T1, FcγRIIa R (FcγRIIa, allotype R: Arg at …); test: SPR Biacore, antibody captured, FcgR analyte; vs HeCon Ab GpH7-A5/GpH7-B3/GpL16-k0 = 100
[3] = molecular target: T2, FcγRIIb extracellular domain with …; test: as above
[4] = molecular target: T3, FcγRIIa H; test: ratio of He/Con_2aH to He/Con_2b (relative SPR binding to FcγRIIa H over FcγRIIb)
[5] = molecular target: T3, FcγRIIa H; test: SPR (Biacore), antibody captured, FcγR as analyte; binding relative to GpH7-A5/GpH7-B3/GpL16-k0 = 100

Row | Binder | He_2aR/2b (IIaR/IIb) [1] | He/Con_2aR [2] [control = 100] | He/Con_2b [3] [control = 100] | He_2aH/2b (IIaH/IIb) [4] | He/Con_2aH [5] [control = 100]
1 | B1 | 1.43 | 78.6 | 54.8 | – | –
2 | B2 | 1.24 | 77.5 | 62.5 | – | –
3 | B3 | 1.31 | 75.1 | 57.4 | – | –
4 | B4 | 2.24 | 62.7 | 27.9 | – | –
5 | B5 | 1.36 | 65.3 | 48.2 | – | –
6 | B6 | 1.23 | 94.8 | 76.9 | – | –
7 | B7 | 1.23 | 89.6 | 72.9 | – | –
8 | B8 | 1.21 | 71.8 | 59.4 | – | –
9 | B9 | 1.24 | 75.1 | 60.3 | – | –
10 | B10 | 1.78 | 103 | 57.8 | – | –
11 | B11 | 1.52 | 93 | 61.4 | – | –
12 | B12 | – | – | – | 3.16 | 30.3
13 | B13 | 1.59 | 74.2 | 46.6 | – | –
14 | B14 | 1.58 | 29.9 | 18.9 | – | –
15 | B15 | 1.3 | 60.7 | 46.8 | – | –
16 | B16 | 1.37 | 48.5 | 35.4 | – | –
